From patent US20240026007A1 (Boehringer Ingelheim, published 2024) come the findings set out here.

In assay [1] the target is 0002-A2 (…)/HLA-A2 02:01 monomer complex (human). The assay can be described thus: ELISA; monomer complex on neutravidin plate. On the technique in general: An ELISA detects its analyte on a solid surface through an enzyme-linked reagent.
Assay [2] addresses V-0013 (…)/HLA-E 01:03 monomer complex (human). Put plainly: ELISA; monomer complex on neutravidin plate.
The target in assay [3] is 0003-A2 (…)/HLA-A2 02:01 monomer complex (human). The assay can be described thus: ELISA; monomer complex on neutravidin plate.
Assay [4] addresses LL-001 (…)/HLA-E 01:03 monomer complex (human). Put plainly: ELISA; monomer complex on neutravidin plate.
Assay [5] deals with T1, V-0025 (…)/HLA-A2 02:01 monomer complex (human).
T1 construct: also called V-0025 on HLA-A2*02:01
The assay can be described thus: ELISA; monomer complex on neutravidin plate.

Assay [6] concerns the target LL-002 (…)/HLA-E 01:03 monomer complex (human). The assay can be described thus: ELISA; monomer complex on neutravidin plate.
For assay [7], the target named is V-0038 (…)/HLA-E 01:03 monomer complex (human). Put plainly: ELISA; monomer complex on neutravidin plate.
Assay [8] concerns the target T2, V-0018 (…)/HLA-A2 02:01 monomer complex (human).
T2 construct: also called ABI-V-0018; negative control (V-0018)
The assay can be described thus: ELISA; monomer complex on neutravidin plate.

Assay [9] deals with P-0550 (…)/HLA-E monomer complex (human). The assay can be described thus: ELISA; monomer complex on neutravidin plate.
The target of assay [10] is T3, HLA-G signal peptide/HLA-E*0103 complex (ABI-V-0025; …) (human).
T3 construct: also called 0025-E 01:03 monomer complex; V-0025 HLA-E 01:03 monomer complex
Put plainly: label-free (ResoSens), against the Octet value of R4.
Description: (§1) The method for determining the affinity was as follows. Thermofisher Capture Select™ Biotin anti-IgG-Fc (Hu) (diluted PBS buffer) was immobilized on neutravidin coated Bionetic label-free microarray plate at 5 ug/ml until binding reached equilibrium. Plate subsequently was washed 3× with 0.1% BSA, 0.1% Tween20, PBS dilution/wash buffer. […] Plate was subsequently washed in dilution/wash buffer 3×. V-0025 HLA-E 01:03 monomer complex (serial dilutions starting at 5 ug/ml in dilution/wash buffer) was added to wells and allowed to incubate for 20 minutes to determine the binding association and then immediately followed by dissociation (dilution/wash buffer) for approximately 25 minutes. Binding affinity calculated using Tracedrawer kinetic analysis software.

The target of assay [11] is V-0021 (…)/HLA-E 01:03 monomer complex (human). The assay can be described thus: ELISA; monomer complex 0.25 µg/ml on neutravidin plate, antibody 1 µg/ml.
In assay [12] the target is T3, HLA-G signal peptide/HLA-E*0103 complex …. Put plainly: label-free (ResoSens, Resonant Sensors); ABX0020 captured by anti-IgG-Fc, V-0025 HLA-E 01:03 monomer in solution (monovalent).
Description: as §1
For assay [13] the target is unchanged. Put plainly: label-free (ResoSens); V-0025 HLA-E 01:03 monomer on neutravidin plate, ABX0040 in solution.

B1: ABX0020 (antibody, human IgG1, kappa)
heavy: not shown
light: DIQMTQSPSSLSASVGDRVTITCRASQSISSYLNWYQQKPGKAPKLLIYAASSLQSGVPSRFSGSGSGTDFTLTISSLQPEDFATYYCQQSATYWDMFGQGTKVEIKRTVAAPSVFIFPPSDEQLKSGTASVVCLLNNFYPREAKVQWKVDNALQSGNSQESVTEQDSKDSTYSLSSTLTLSKADYEKHKVYACEVTHQGLSSPVTKSFNRGEC
notes: also called R2-A12 hIgG1
In general, Kd refers to the free concentration of one partner at which half of the binding sites on the other are occupied at equilibrium, for simple one-to-one binding. High values mean lower affinity, low ones higher affinity. In the case of B1, the binding result in [1] is listed as “no binding (tested: antibody 1 µg/ml, antigen 0.25 µg/ml)”; in assay [2], “no binding (tested: antibody 1 µg/ml, antigen 0.25 µg/ml)”; in [3], “no binding (tested: antibody 1 µg/ml, antigen 0.25 µg/ml)”; in assay [4], “no binding (tested: antibody 1 µg/ml, antigen 0.25 µg/ml)”; in [5] it was “no binding (tested: antibody 1 µg/ml, antigen 0.25 µg/ml)”; in assay [6] it was “no binding (tested: antibody 1 µg/ml, antigen 0.25 µg/ml)”. For the same molecule, the binding result is on record as “no binding (tested: antibody 1 µg/ml, antigen 0.25 µg/ml)” in [7]; “no binding (tested: antibody 1 µg/ml, antigen 0.25 µg/ml)” in [8]; “no binding (tested: antibody 1 µg/ml, antigen 0.25 µg/ml)” in [9]; “binds” in [11]. Further, the “fold improvement of KD over the R4 clone” value in assay [10] was above 200 fold. The molecule further displayed a Kd in assay [12] of 1.87 nM.

B2: ABX0040 (bispecific antibody)
chain 1: not shown
chain 2: B1 light
chain 3: EVQLVESGGGLVQPKGSLKLSCAASGFTFNTYAMNWVRQAPGKGLEWVARIRSKYNNYATYYADSVKDRFTISRDDSQSILYLQMNNLKTEDTAMYYCVRHGNFGNSYVSWFAYWGQGTLVTVSS
chain 4: QAVVTQESALTTSPGETVTLTCRSSTGAVTTSNYANWVQEKPDHLFTGLIGGTNKRAPGVPARFSGSLIGDKAALTITGAQTEDEAIYFCALWYSNLWVFGGGTKLTVL
In turn, B2 displayed a Kd in assay [13] of 1.57 nM.
